Source: patent publication US20050147614A1 (CANCER RESEARCH TECHNOLOGY, published 2005)
“And” between values parts separate entries of the source, which are not always exact repeats. Identical values can stand only once. Blank lines part the entries; values can stand above or below the molecule they belong to.

Key:
[1] = molecular target: carcinoembryonic antigen (CEA) (UniProt P06731); test: off-rate analysis on the yeast surface at 37 C
[2] = molecular target: T1, carcinoembryonic antigen (CEA) (UniProt P06731 35-685, limits assumed, biotinylated (labelled form); unlabelled CEA (Calbiochem) used as competitor in the off-rate assays); test: yeast surface display, equilibrium titration with biotinylated CEA, flow cytometry, 37 C
T1 construct: also called biotinylated-CEA; bio-CEA
T1 sequence (looked up): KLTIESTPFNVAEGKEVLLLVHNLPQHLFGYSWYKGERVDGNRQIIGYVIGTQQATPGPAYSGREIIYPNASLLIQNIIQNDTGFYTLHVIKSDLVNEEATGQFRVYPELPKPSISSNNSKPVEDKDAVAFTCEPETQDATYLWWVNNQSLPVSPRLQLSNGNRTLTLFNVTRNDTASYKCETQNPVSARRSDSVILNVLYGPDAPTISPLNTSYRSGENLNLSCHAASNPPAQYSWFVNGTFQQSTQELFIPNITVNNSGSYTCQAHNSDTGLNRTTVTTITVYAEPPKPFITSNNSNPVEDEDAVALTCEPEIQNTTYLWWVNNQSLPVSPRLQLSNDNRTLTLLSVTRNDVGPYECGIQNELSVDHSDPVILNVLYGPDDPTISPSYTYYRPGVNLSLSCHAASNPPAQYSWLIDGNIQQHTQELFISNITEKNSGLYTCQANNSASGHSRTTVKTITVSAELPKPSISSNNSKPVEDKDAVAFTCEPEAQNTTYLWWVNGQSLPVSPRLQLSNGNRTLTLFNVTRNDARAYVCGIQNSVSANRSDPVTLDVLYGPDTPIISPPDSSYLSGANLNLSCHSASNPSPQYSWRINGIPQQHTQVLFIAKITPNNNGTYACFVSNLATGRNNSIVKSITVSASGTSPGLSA
Description: Equilibrium binding constants KD for CEA at 37° C. A) Plot of CEA binding (measured fluorescence) versus CEA concentration. B) CEA binding (normalized for different display levels) versus CEA concentration. […] C) Soluble production of MFE-23 (1) and hMFE (2) at 37° C. for 48 hours. Additional lanes are the scFvs produced at 37° C. and 20° C. for varying amounts of time.

[3] = molecular target: T1, carcinoembryonic antigen (CEA); test: yeast surface display, off-rate analysis
[4] = molecular target: T1, carcinoembryonic antigen (CEA); test: off-rate analysis on the yeast surface at 37 C
[5] = molecular target: T1, carcinoembryonic antigen (CEA); test: yeast surface display, dissociation of biotinylated CEA in excess unlabelled CEA, flow cytometry
Description: Binding analysis of clones isolated from aggressive hMFE Library sort. A) Equilibrium Titration (Example 3). hMFE (kD±8.5±0.5 nM) (●), m9B (kD=0.8±0.1 nM) (▪), m10B (kD=0.08±0.01 nM) (♦)B). Off-rate. Dissociation rates were measured by first labeling yeast displaying the scFv of interest with biotinylated CEA. Then, the labeled cells were washed and incubated with an excess of nonbiotinylated CEA. Dissociation of labeled CEA from the cells was followed at the single cell level by flow cytometry and streptavidin-PE labeling, as described in Example 3. hMFE (koff=1.2±0.1×10⁻³ s⁻¹) (●), m9B (koff=7.5±0.4×10⁻⁵ s⁻¹) (▪), m10B (koff=6.0±0.4×10⁻⁶ s⁻¹) (♦).

[6] = molecular target: T1, carcinoembryonic antigen (CEA); test: yeast surface display, off-rate analysis with biotinylated CEA and excess unlabelled CEA, flow cytometry
[7] = molecular target: T1, carcinoembryonic antigen (CEA); test: yeast surface display, dissociation of biotinylated CEA in 100-fold excess unlabelled CEA at 37 C, flow cytometry
[8] = molecular target: T1, carcinoembryonic antigen (CEA); test: yeast surface display, equilibrium titration with biotinylated CEA
[9] = molecular target: T1, carcinoembryonic antigen (CEA); test: yeast surface display, equilibrium titration with biotinylated CEA, flow cytometry

B1: MFE-23 scFv (scFv)
scFv: QVKLQQSGAELVRSGTSVKLSCTASGFNIKDSYMHWLRQGPEQGLEWIGWIDPENGDTEYAPKFQGKATFTTDTSSNTAYLQLSSLTSEDTAVYYCNEGTPTGPYYFDYWGQGTTVTVSSGGGGSGGGGSGGGGSENVLTQSPAIMSASPGEKVTITCSASSSVSYMHWFQQKPGTSPKLWIYSTSNLASGVPARFSGSGSGTSYSLTISRMEAEDAATYYCQQRSSYPLTFGAGTKLELKRAA
notes: Tested on the yeast surface as an Aga2p fusion in pCTCON, with an HA tag N-terminal and a c-myc tag C-terminal of the scFv
Kd [2]: 8.3 nM and 7.5 nM

B2: humanized MFE-23 (hMFE) scFv (scFv)
scFv: PYDVPDYALQASGGGGSGGGGSGGGGSASQVKLEQSGAEVVKPGASVKLSCKASGFNIKDSYMHWLRQGPGQRLEWIGWIDPENGDTEYAPKFQGKATFTTDTSANTAYLGLSSLRPEDTAVYYCNEGTPTGPYYFDYWGQGTLVTVSSGGGGSGGGGSGGGGSENVLTQSPSSMSASVGDRVNIACSASSSVSYMHWFQQKPGKSPKLWIYSTSNLASGVPSRFSGSGSGTDYSLTISSMQPEDAATYYCQQRSSYPLTFGGGTKLEIKAAAGSEQKLISEEDL
notes: also called hMFE-23; resurfaced scFv
half-life for binding to CEA [3]: 0.167 h
koff [4]: 0.0009 s⁻¹
Kd [2]: 8.3 nM and 8.5 nM
koff [5]: 0.0012 s⁻¹

B5: sm10B+T98A (scFv)
chain: PYDVPDYALQASGGGGSGGGGSGGGGSASQVKLEQSGAEVVKPGASVKLSCKASGFNIKDSYMHWLRQGPGQRLEWIGWIDPENGDTEYAPKFQGKATFTTDTSANTAYLGLSSLRPEDTAVYYCNEGTPAGPYYFDYWGQGTLVTVSSGGGGSGGGGSGGGGSENVLTQSPSSMSASVGDRVTIACSASSSVPYMHWFQQKPGKSPKLLIYLTSNLASGVPSRFSGSGSGTDYSLTISSVQPEDAATYYCQQRSSYPLTFGGGTKLEIKAAAGSEQKLISEEDL
koff [4]: 6.8e-06 s⁻¹

B7: m7E (scFv)
chain: PYDVPDYALQASGGGGSGGGGSGGGGSASQVKLEQSGAEVVKPGASVKLSCKASGFNIKDSYMHWLRQGPGQRLEWIGWIDPENGDTEYAPKFQGKATFTTDTSANTAYLGLSSLRPEDTAVYYCNEGTPTGPYYFDYWGQGTLVTVSSGGGGSGGGGSGGGGSENVLTQSPSSMSASVGDRVNIACNASSSVSYMHWLQQKPGKSPKLWIYLTSNLAPGVPSRFSGSGSGTDYSLTISSMQPEDAATYYCQQRSSYPLTFGGGTKLEIKAAAGSEQKLISEEDL
koff [7]: 1.8e-06 s⁻¹

B10: m10B (scFv)
chain: PYDVPDYALQASGGGGSGGGGSGGGGSASQVKLEQSGAEVVKPGASVKLSCKASGFNIKDSYMHWLRQGPGQRLEWIGWIDPENGDTEYAPKFQGKATFTTDTSANTAYLGLSSLRPEDTAVYYCNEGTPTGPYYFDYWGQGTLVTVSSGGGGSGGGGSGGGGSENVLTQSPSSMSASVGDRVNIACSASSSVSYMHWFQQKPGKSPKLWIYLTSNLASGVPSRFSGSGSGTDYSLTISSMQPEDAATYYCQQRSSYPLTFGGGTKLEIKAAAGSEQKLISEEDL
fold improvement in the off-rate over hMFE [3]: 200 fold
fold improvement in the affinity over hMFE [8]: 100 fold
Kd [9]: 0.08 nM
koff [5]: 6e-06 s⁻¹

More lines, now with the values ahead:

koff [1]: 1.2e-06 s⁻¹
Molecule: sm3E+T98A (scFv)

fold improvement in off-rate over hMFE [4]: 1.5 fold
koff [4]: 0.0006 s⁻¹
B3: hMFE+T98A (scFv)
chain: PYDVPDYALQASGGGGSGGGGSGGGGSASQVKLEQSGAEVVKPGASVKLSCKASGFNIKDSYMHWLRQGPGQRLEWIGWIDPENGDTEYAPKFQGKATFTTDTSANTAYLGLSSLRPEDTAVYYCNEGTPAGPYYFDYWGQGTLVTVSSGGGGSGGGGSGGGGSENVLTQSPSSMSASVGDRVNIACSASSSVSYMHWFQQKPGKSPKLWIYSTSNLASGVPSRFSGSGSGTDYSLTISSMQPEDAATYYCQQRSSYPLTFGGGTKLEIKAAAGSEQKLISEEDL

koff [6]: 0.00011 s⁻¹
B4: sm9B (scFv)
chain: PYDVPDYALQASGGGGSGGGGSGGGGSASQVKLEQSGAEVVKPGASVKLSCKASGFNIKDSYMHWLRQGPGQRLEWIGWIDPENGDTEYAPKFQGKATFTTDTSANTAYLGLSSLRPEDTAVYYCNEGTPTGPYYFDYWGQGTLVTVSSGGGGSGGGGSGGGGSENVLTQSPSSMSASVGDRVTIACSASSSVPYMHWLQQKPGKSPKLLIYSTSNLASGVPSRFSGSGSGTDYSLTISSVQPEDAATYYCQQRSSYPLTFGGGTKLEIKAAAGSEQKLISEEDL

half-life for binding to CEA [3]: ~168 h
koff [7]: 1.2e-06 s⁻¹
B6: m3E (scFv)
chain: PYDVPDYALQASGGGGSGGGGSGGGGSASQVKLEQSGAEVVKPGASVKLSCKASGFNIKDSYMHWLRQGPGQRLEWIGWIDPENGDTEYAPKFQGKATFTTDTSANTAYLGLSSLRPEDTAVYYCNEGTPTGPYYFDYWGQGTLVTVSSGGGGSGGGGSGGGGSENVLTQSPSSMSASVGDRVNIACSASSSVSYMHWLQQKPGKSPKLWIYLTSNLASGVPSRFSGSGSGTDYSLTISSMQPEDAATYYCQQRSSYPLTFGGGTKLEIKAAAGSEQKLISEEDL

koff [4]: 8.2e-06 s⁻¹
koff [6]: 8.3e-06 s⁻¹
B8: sm10B (scFv)
chain: PYDVPDYALQASGGGGSGGGGSGGGGSASQVKLEQSGAEVVKPGASVKLSCKASGFNIKDSYMHWLRQGPGQRLEWIGWIDPENGDTEYAPKFQGKATFTTDTSANTAYLGLSSLRPEDTAVYYCNEGTPTGPYYFDYWGQGTLVTVSSGGGGSGGGGSGGGGSENVLTQSPSSMSASVGDRVTIACSASSSVPYMHWFQQKPGKSPKLLIYLTSNLASGVPSRFSGSGSGTDYSLTISSVQPEDAATYYCQQRSSYPLTFGGGTKLEIKAAAGSEQKLISEEDL

fold improvement in the off-rate over hMFE [3]: 16 fold
fold improvement in the dissociation constant over hMFE [8]: 10 fold
Kd [9]: 0.8 nM
koff [5]: 7.5e-05 s⁻¹
B9: m9B (scFv)
chain: PYDVPDYALQASGGGGSGGGGSGGGGSASQVKLEQSGAEVVKPGASVKLSCKASGFNIKDSYMHWLRQGPGQRLEWIGWIDPENGDTEYAPKFQGKATFTTDTSANTAYLGLSSLRPEDTAVYYCNEGTPTGPYYFDYWGQGTLVTVSSGGGGSGGGGSGGGGSENVLTQSPSSMSASVGDRVNIACSASSSVSYMHWLQQKPGKSPKLWIYSTSNLASGVPSRFSGSGSGTDYSLTISSMQPEDAATYYCQQRSSYPLTFGGGTKLEIKAAAGSEQKLISEEDL

koff [7]: 2.6e-06 s⁻¹
B11: m8E (scFv)
chain: PYDVPDYALQASGGGGSGGGGSGGGGSASQVKLEQSGAEVVKPGASVKLSCKASGFNIKDSYMHWLRQGPGQRLEWIGWIDPQNGDTEYAPKFQGKATFTTDTSANTAYLGLSSLRPEDTAVYYCNEGTPAGPYYFDYWGQGTLVTVSSGGGGSGGGGSGGGGSENVLTQSPSSMSASVGDRVNIACSASSSVSYMHWFQQKPGKSPKLWIYLTSNLAPGVPSRFSGSGSGTDYSLTISSMQPEDAATYYCQQRSSYPLTFGGGTKLEIKAAAGSEQKLISEEDL
